This is an account of results in patent US20240084031A1 (Seagen, published 2024).

Experiment [1] deals with T1, human CD70 on CD70 positive cell lines (human, UniProt P32970 1-193).
T1 sequence (looked up): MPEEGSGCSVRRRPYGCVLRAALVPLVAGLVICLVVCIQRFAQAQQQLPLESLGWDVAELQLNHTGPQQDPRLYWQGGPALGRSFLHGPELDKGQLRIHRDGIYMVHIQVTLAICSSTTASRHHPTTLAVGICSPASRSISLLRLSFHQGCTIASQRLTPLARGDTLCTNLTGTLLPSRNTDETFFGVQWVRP
As to the kind of experiment: cell-based or functional assay.

In experiment [2] the target is T1, human CD70 on CD70 positive cell lines. As to the kind of experiment: 786-O cell binding, apparent KD of the IgG.

B1: h1F6 HJLA-F8 (HJLA conjugated to vcMMAF, eight drug units per antibody) (antibody, human IgG1, kappa)
heavy: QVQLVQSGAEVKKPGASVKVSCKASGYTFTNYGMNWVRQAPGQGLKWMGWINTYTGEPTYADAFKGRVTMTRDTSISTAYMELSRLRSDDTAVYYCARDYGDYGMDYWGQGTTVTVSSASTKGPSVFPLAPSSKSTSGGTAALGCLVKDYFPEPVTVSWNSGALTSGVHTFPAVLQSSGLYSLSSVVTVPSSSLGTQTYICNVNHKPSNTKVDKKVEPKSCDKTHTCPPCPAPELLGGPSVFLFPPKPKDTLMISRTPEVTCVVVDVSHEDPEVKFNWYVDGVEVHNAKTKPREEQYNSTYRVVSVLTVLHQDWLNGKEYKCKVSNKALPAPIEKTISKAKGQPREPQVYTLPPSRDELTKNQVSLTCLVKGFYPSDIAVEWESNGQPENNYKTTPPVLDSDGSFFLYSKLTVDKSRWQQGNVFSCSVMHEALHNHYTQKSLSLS
light: DIVMTQSPDSLAVSLGERATINCRASKSVSTSGYSFMHWYQQKPGQPPKLLIYLASNLESGVPDRFSGSGSGTDFTLTISSLQAEDVAVYYCQHSREVPWTFGQGTKVEIKRTVAAPSVFIFPPSDEQLKSGTASVVCLLNNFYPREAKVQWKVDNALQSGNSQESVTEQDSKDSTYSLSSTLTLSKADYEKHKVYACEVTHQGLSSPVTKSFNRGEC
modifications: vcMMAF conjugated, loading level of eight drug units per antibody; attachment residues not stated
For the molecule B1, in experiment [1], the “cytotoxicity IC50 (mean, n = 3), 786-O cells” value is 3.03 ng/mL; the “cytotoxicity IC50 (mean, n = 3), Caki-1 cells” value worked out at 2.3 ng/mL; the “cytotoxicity IC50, 786-O cells” value was 3.4 ng/mL; the “cytotoxicity IC50, Caki-1 cells” value was 2.2 ng/mL.

B2: h1F6 IgG1 A327C (antibody)
heavy: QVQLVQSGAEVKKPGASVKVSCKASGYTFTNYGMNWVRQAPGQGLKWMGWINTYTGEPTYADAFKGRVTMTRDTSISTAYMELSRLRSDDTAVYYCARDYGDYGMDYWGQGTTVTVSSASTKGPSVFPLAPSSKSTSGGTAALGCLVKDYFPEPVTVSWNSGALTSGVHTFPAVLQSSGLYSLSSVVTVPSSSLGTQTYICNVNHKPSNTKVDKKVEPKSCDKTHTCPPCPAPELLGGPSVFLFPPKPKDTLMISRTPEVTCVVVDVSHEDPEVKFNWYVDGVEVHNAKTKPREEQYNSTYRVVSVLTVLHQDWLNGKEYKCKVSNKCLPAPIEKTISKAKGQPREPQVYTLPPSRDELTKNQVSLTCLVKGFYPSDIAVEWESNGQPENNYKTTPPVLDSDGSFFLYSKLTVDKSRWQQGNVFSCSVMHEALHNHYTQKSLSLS
light: DIVMTQSPDSLAVSLGERATINCRASKSVSTSGYSFMHWYQQKPGQPPKLLIYLASNLESGVPDRFSGSGSGTDFTLTISSLQAEDVAVYYCQHSREVPWTFGQGTKVEIKRTVAAPSVFIFPPSDEQLKSGTASVVCLLNNFYPREAKVQWKVDNALQSGNSQESVTEQDSKDSTYSLSSTLTLSKADYEKHKVYACEVTHQGLSSPVTKSFNRGEC
As to B2, the Kd in experiment [2] is 500 pM.

B3: h1F6 IgG1 D265C (antibody)
heavy: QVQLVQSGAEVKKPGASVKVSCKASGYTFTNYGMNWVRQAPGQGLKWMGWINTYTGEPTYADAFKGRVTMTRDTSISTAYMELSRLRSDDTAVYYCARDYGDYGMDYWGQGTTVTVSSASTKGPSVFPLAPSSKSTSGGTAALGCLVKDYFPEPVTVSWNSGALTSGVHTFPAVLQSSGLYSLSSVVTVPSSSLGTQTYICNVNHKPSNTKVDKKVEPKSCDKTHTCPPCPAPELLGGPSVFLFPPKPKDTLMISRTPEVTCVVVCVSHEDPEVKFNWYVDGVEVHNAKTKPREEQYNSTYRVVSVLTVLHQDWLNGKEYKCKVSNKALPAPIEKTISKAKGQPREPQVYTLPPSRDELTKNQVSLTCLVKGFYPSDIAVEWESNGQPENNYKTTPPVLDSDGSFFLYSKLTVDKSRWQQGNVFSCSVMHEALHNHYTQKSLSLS
light: DIVMTQSPDSLAVSLGERATINCRASKSVSTSGYSFMHWYQQKPGQPPKLLIYLASNLESGVPDRFSGSGSGTDFTLTISSLQAEDVAVYYCQHSREVPWTFGQGTKVEIKRTVAAPSVFIFPPSDEQLKSGTASVVCLLNNFYPREAKVQWKVDNALQSGNSQESVTEQDSKDSTYSLSSTLTLSKADYEKHKVYACEVTHQGLSSPVTKSFNRGEC
In the case of B3, the Kd in experiment [2] amounted to 1100 pM.

B4: c1F6(293)-F8 (c1F6 conjugated to vcMMAF, eight drug units per antibody) (antibody, V domains shown)
VH: QIQLVQSGPEVKKPGETVKISCKASGYTFTNYGMNWVKQAPGKGLKWMGWINTYTGEPTYADAFKGRFAFSLETSASTAYLQINNLKNEDTATYFCARDYGDYGMDYWGQGTSVTVSS
VL: DIVLTQSPASLAVSLGQRATISCRASKSVSTSGYSFMHWYQQKPGQPPKLLIYLASNLESGVPARFSGSGSGTDFTLNIHPVEEEDAATYYCQHSREVPWTFGGGTKLEIKR
modifications: vcMMAF conjugated, loading level of eight drug units per antibody; attachment residues not stated
With B4, in experiment [1], the “cytotoxicity IC50 (mean, n = 3), 786-O cells” value was found to be 1.45 ng/mL; the “cytotoxicity IC50 (mean, n = 3), Caki-1 cells” value was found to be 2.17 ng/mL; the “cytotoxicity IC50, 786-O cells” value is 2.4 ng/mL; the “cytotoxicity IC50, Caki-1 cells” value is 1.8 ng/mL.

B5: h1F6 HMLA-F8 (humanized 1F6 derivative HMLA, hVHM and hVLA, conjugated to vcMMAF, eight drug units per antibody) (antibody, human IgG1, kappa, V domains shown)
VH: QVQLVQSGAEVKKPGASVKVSCKASGYTFTNYGMNWVRQAPGQGLKWMGWINTYTGEPTYADAFKGRFAFSLDTSTSTAYMELRSLRSDDTAVYYCARDYGDYGMDYWGQGTTVTVSS
VL: DIVMTQSPDSLAVSLGERATINCRASKSVSTSGYSFMHWYQQKPGQPPKLLIYLASNLESGVPDRFSGSGSGTDFTLTISSLQAEDVAVYYCQHSREVPWTFGQGTKVEIKR
modifications: vcMMAF conjugated, loading level of eight drug units per antibody; attachment residues not stated
As to B5, in experiment [1], the “cytotoxicity IC50 (mean, n = 3), 786-O cells” value was 2.03 ng/mL; the “cytotoxicity IC50 (mean, n = 3), Caki-1 cells” value stood at 2.07 ng/mL; the “cytotoxicity IC50, 786-O cells” value was determined as 2.8 ng/mL; the “cytotoxicity IC50, Caki-1 cells” value was determined as 1.8 ng/mL.

B6: h1F6 HHLA-F8 (HHLA conjugated to vcMMAF, eight drug units per antibody) (antibody, human IgG1, kappa, V domains shown)
VH: QVQLVQSGAEVKKPGASVKVSCKASGYTFTNYGMNWVRQAPGQGLEWMGWINTYTGEPTYADAFKGRFAFSLDTSTSTAYLQINSLRSDDTAVYYCARDYGDYGMDYWGQGTTVTVSS
VL: DIVMTQSPDSLAVSLGERATINCRASKSVSTSGYSFMHWYQQKPGQPPKLLIYLASNLESGVPDRFSGSGSGTDFTLTISSLQAEDVAVYYCQHSREVPWTFGQGTKVEIKR
modifications: vcMMAF conjugated, loading level of eight drug units per antibody; attachment residues not stated
Turning to B6, in experiment [1], the “cytotoxicity IC50 (mean, n = 3), 786-O cells” value is 1.93 ng/mL; the “cytotoxicity IC50 (mean, n = 3), Caki-1 cells” value worked out at 1.87 ng/mL; the “cytotoxicity IC50, 786-O cells” value came out at 2.3 ng/mL; the “cytotoxicity IC50, Caki-1 cells” value is 1.4 ng/mL.

B7: h1F6 HELA-F8 (humanized 1F6 derivative HELA, hVHE and hVLA, conjugated to vcMMAF, eight drug units per antibody) (antibody, human IgG1, kappa, V domains shown)
VH: QVQLVQSGAEVKKPGASVKVSCKASGYTFTNYGMNWVRQAPGQGLEWMGWINTYTGEPTYADAFKGRVTMTRDTSISTAYMELSRLRSDDTAVYYCARDYGDYGMDYWGQGTTVTVSS
VL: DIVMTQSPDSLAVSLGERATINCRASKSVSTSGYSFMHWYQQKPGQPPKLLIYLASNLESGVPDRFSGSGSGTDFTLTISSLQAEDVAVYYCQHSREVPWTFGQGTKVEIKR
modifications: vcMMAF conjugated, loading level of eight drug units per antibody; attachment residues not stated
As to B7, in experiment [1], the “cytotoxicity IC50 (mean, n = 3), 786-O cells” value amounted to 3.9 ng/mL; the “cytotoxicity IC50 (mean, n = 3), Caki-1 cells” value was found to be 2.87 ng/mL; the “cytotoxicity IC50, 786-O cells” value came to 5.2 ng/mL; the “cytotoxicity IC50, Caki-1 cells” value worked out at 3.4 ng/mL.
